Results: patent US20200048328A1 (Bristol-Myers Squibb, published 2020)

Columns and labels:
human PCSK9 [1] = biological target: T1, human PCSK9 (human, UniProt Q8NBP7 31-692); assay: PCSK9:EGFA FRET human, summary table
T1 construct: also called hPCSK9; huPCSK9

human serum albumin [2] = biological target: T2, human serum albumin (human, UniProt P02768 25-609); assay: Albumin KD (37° C.), summary table; human serum albumin (first value in the cell)
T2 construct: immobilized on chips or coated on plates elsewhere; also called HSA; HuSA

human PCSK9 [3] = biological target: T1, human PCSK9; assay: BLI (Octet), biotinylated PCSK9 on tips, tandem in complex with excess HSA
Excerpt: (§1) Binding curves were globally fit to produce values for KD, kₒₙ, and koff.

human PCSK9 [4] = biological target: T1, human PCSK9; assay: PCSK9:EGFA FRET 1, competition
human PCSK9 [5] = biological target: T1, human PCSK9; assay: PCSK9:EGFA FRET 2, competition
rhesus serum albumin [6] = biological target: T3, rhesus serum albumin (rhesus, UniProt Q28522 17-600); assay: direct binding ELISA, albumin coated
T3 construct: also called RhSA; Rh-SA
Description: (§2) Cross-species albumin binding was determined using the ELISA method described above.

mouse serum albumin [7] = biological target: T4, mouse serum albumin (mouse, UniProt P07724 25-608); assay: direct binding ELISA, albumin coated
T4 construct: also called MSA; MuSA
Description: as §2

human serum albumin [8] = biological target: T2, human serum albumin; assay: direct binding ELISA, albumin coated
Description: as §2

rat serum albumin = biological target: T5, rat serum albumin (rat, UniProt P02770 25-608); assay: Albumin KD (37° C.), summary table; rat serum albumin (fourth value of the list)
T5 construct: also called Rat SA; RSA

rhesus serum albumin [9] = biological target: T3, rhesus serum albumin; assay: SPR, albumin immobilized, acetate pH 5.5
mouse serum albumin [10] = biological target: T4, mouse serum albumin; assay: SPR, albumin immobilized, acetate pH 5.5
human serum albumin [11] = biological target: T2, human serum albumin; assay: SPR, albumin immobilized, acetate pH 5.5
cynomolgus serum albumin = biological target: T6, cynomolgus serum albumin (cynomolgus, UniProt A2V9Z4 25-608); assay: Albumin KD (37° C.), summary table; cynomolgus serum albumin (second value in the cell)
T6 construct: also called cynoSA; CySA

rhesus serum albumin [12] = biological target: T3, rhesus serum albumin; assay: SPR, albumin immobilized;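 note: biacore SPR with human, rhesus or mouse serum albumin amine-coupled to the chip (about 1200 RU), 3 min association, 6-10 min dissociation, reference-subtracted traces fitted with a 1:1 model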
Description: (§3) To determine the kinetics of binding to human, rhesus, and mouse serum albumin, as well as whether binding was retained at both physiological and endosomal pHs, the respective serum albumins were immobilized on a Biacore CMS chip to a surface density of ˜1200 RU using standard NHS/EDC coupling. […] Kinetic measurements were carried out using a 3 min association and 6-10 min dissociation phase. Kinetic traces of reference-subtracted sensorgrams were fit to a 1:1 binding model using the Biaevaluation software.

mouse serum albumin [13] = biological target: T4, mouse serum albumin; assay: SPR, albumin immobilized;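 note: biacore SPR with human, rhesus or mouse serum albumin amine-coupled to the chip (about 1200 RU), 3 min association, 6-10 min dissociation, reference-subtracted traces fitted with a 1:1 model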
Description: as §3

human serum albumin [14] = biological target: T2, human serum albumin; assay: SPR, albumin immobilized;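 note: biacore SPR with human, rhesus or mouse serum albumin amine-coupled to the chip (about 1200 RU), 3 min association, 6-10 min dissociation, reference-subtracted traces fitted with a 1:1 model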
Description: as §3

human PCSK9 [15] = biological target: T1, human PCSK9; assay: PCSK9:LDLR FRET, competition
rhesus serum albumin [16] = biological target: T3, rhesus serum albumin; assay: SPR, albumin immobilized, HBSP pH 7.4
mouse serum albumin [17] = biological target: T4, mouse serum albumin; assay: SPR, albumin immobilized, HBSP pH 7.4
human serum albumin [18] = biological target: T2, human serum albumin; assay: SPR, albumin immobilized, HBSP pH 7.4
mouse serum albumin [19] = biological target: T4, mouse serum albumin; assay: Albumin KD (37° C.), summary table; mouse serum albumin (third value of the list)
rhesus serum albumin [20] = biological target: T3, rhesus serum albumin; assay: SPR, albumin immobilized, acetate pH 7.4
mouse serum albumin [21] = biological target: T4, mouse serum albumin; assay: SPR, albumin immobilized, acetate pH 7.4
human serum albumin [22] = biological target: T2, human serum albumin; assay: SPR, albumin immobilized, acetate pH 7.4
human PCSK9 [23] = biological target: T1, human PCSK9; assay: BLI (Octet), biotinylated PCSK9 on tips, no HSA
Excerpt: as §1

T4 sequence (P07724 25-608 limits assumed): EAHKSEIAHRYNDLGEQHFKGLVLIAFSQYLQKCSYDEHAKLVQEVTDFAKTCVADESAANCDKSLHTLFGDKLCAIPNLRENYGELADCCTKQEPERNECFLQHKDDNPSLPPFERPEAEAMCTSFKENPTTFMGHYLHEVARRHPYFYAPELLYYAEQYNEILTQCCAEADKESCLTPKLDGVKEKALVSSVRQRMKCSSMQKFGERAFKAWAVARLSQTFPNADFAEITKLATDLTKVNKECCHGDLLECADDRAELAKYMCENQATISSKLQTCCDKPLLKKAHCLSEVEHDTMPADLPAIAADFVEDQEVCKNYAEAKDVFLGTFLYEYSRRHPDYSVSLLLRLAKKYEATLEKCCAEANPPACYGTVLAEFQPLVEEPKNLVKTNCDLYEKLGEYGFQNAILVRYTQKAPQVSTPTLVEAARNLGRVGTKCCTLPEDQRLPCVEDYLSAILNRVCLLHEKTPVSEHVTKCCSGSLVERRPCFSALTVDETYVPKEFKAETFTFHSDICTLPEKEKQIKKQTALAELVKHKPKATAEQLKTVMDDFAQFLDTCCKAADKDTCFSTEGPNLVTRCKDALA
T3 sequence (Q28522 17-600 limits assumed): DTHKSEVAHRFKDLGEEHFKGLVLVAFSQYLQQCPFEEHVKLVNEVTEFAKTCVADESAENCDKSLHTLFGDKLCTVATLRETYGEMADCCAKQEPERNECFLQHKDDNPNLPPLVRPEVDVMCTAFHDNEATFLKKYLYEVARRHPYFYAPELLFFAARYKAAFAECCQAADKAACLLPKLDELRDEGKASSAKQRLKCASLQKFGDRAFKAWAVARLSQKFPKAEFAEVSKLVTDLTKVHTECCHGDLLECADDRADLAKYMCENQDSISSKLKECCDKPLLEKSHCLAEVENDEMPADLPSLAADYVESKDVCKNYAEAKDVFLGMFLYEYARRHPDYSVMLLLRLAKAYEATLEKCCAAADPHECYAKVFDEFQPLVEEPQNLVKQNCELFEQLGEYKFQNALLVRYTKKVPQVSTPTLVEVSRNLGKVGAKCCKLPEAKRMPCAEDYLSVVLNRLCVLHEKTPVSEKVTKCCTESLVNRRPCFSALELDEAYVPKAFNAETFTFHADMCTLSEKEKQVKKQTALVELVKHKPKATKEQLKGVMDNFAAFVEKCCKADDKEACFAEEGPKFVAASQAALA
T5 sequence (P02770 25-608 limits assumed): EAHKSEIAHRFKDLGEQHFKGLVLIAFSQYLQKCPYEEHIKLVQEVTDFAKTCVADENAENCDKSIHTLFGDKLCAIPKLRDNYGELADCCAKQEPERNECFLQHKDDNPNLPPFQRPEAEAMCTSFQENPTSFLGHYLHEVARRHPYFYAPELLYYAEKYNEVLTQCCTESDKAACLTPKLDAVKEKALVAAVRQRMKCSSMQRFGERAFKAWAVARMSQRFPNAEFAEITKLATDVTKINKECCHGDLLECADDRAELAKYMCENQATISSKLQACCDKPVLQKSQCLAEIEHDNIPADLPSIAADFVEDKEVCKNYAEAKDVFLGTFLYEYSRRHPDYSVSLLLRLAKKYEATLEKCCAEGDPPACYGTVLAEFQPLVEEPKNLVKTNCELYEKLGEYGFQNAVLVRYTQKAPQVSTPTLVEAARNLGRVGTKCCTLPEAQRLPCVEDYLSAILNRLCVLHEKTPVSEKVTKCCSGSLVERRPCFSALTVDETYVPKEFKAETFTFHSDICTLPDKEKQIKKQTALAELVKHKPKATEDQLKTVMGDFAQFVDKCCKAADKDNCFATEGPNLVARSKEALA
T6 sequence (A2V9Z4 25-608 limits assumed): as the sequence (Q28522 17-600 limits assumed) above

B1: PCSK9-PKE2 tandem Adnectin w/ his tag 4472_C06 (designed binder)
chain: MGVSDVPRDLEVVAATPTSLLISWDAPAEGYGYYRITYGETGGNSPVQEFTVPVSKGTATISGLKPGVDYTITVYAVEFDFPGAGYYHRPISINYRTEPSTPPTPSPSTPPTPSPSGVSDVPRDLEVVAATPTSLLISWDAPAVTVRYYRITYGREVQKYSDLGPLYIYQEFTVPGSKSTATISGLKPGVDYTITVYAVTGSGESPASSKPISINYRTEHHHHHH
notes: also called ATI-1574; ADX_4472_C06
IC50 (human PCSK9 [1]): 1.5 nM | Kd (human serum albumin [2]): 57 nM | Kd (human PCSK9 [3]): 1.55 nM | koff (human PCSK9 [3]): 0.000305 s⁻¹ | kon (human PCSK9 [3]): 197000 M⁻¹ s⁻¹ | IC50 (human PCSK9 [4]): 9.18 nM | IC50 (human PCSK9 [5]): 3.09 nM | EC50 (rhesus serum albumin [6]): 131 nM | EC50 (mouse serum albumin [7]): 15.6 nM | EC50 (human serum albumin [8]): 184 nM | Kd (rat serum albumin): 200 nM | Kd (rhesus serum albumin [9]): 97.5 nM | koff (rhesus serum albumin [9]): 0.000815 s⁻¹ | kon (rhesus serum albumin [9]): 8360 M⁻¹ s⁻¹ | Kd (mouse serum albumin [10]): 123 nM | koff (mouse serum albumin [10]): 0.00161 s⁻¹ | kon (mouse serum albumin [10]): 13100 M⁻¹ s⁻¹ | Kd (human serum albumin [11]): 38.2 nM | koff (human serum albumin [11]): 0.000466 s⁻¹ | kon (human serum albumin [11]): 12200 M⁻¹ s⁻¹ | Kd (cynomolgus serum albumin): 51 nM | Kd (rhesus serum albumin [12]): 77 nM | koff (rhesus serum albumin [12]): 0.000337 s⁻¹ | kon (rhesus serum albumin [12]): 4380 M⁻¹ s⁻¹ | Kd (mouse serum albumin [13]): 26.1 nM | koff (mouse serum albumin [13]): 0.000301 s⁻¹ | kon (mouse serum albumin [13]): 11500 M⁻¹ s⁻¹ | Kd (human serum albumin [14]): 73.7 nM | koff (human serum albumin [14]): 0.000289 s⁻¹ | kon (human serum albumin [14]): 3920 M⁻¹ s⁻¹ | IC50 (human PCSK9 [15]): 1.4 nM | Kd (rhesus serum albumin [16]): 78.9 nM | koff (rhesus serum albumin [16]): 0.000305 s⁻¹ | kon (rhesus serum albumin [16]): 3860 M⁻¹ s⁻¹ | Kd (mouse serum albumin [17]): 28.2 nM | koff (mouse serum albumin [17]): 0.000336 s⁻¹ | kon (mouse serum albumin [17]): 11900 M⁻¹ s⁻¹ | Kd (human serum albumin [18]): 72 nM | koff (human serum albumin [18]): 0.000258 s⁻¹ | kon (human serum albumin [18]): 3580 M⁻¹ s⁻¹ | Kd (mouse serum albumin [19]): 43 nM | Kd (rhesus serum albumin [20]): 80.7 nM | koff (rhesus serum albumin [20]): 0.000364 s⁻¹ | kon (rhesus serum albumin [20]): 4510 M⁻¹ s⁻¹ | Kd (mouse serum albumin [21]): 34.8 nM | koff (mouse serum albumin [21]): 0.000375 s⁻¹ | kon (mouse serum albumin [21]): 10800 M⁻¹ s⁻¹ | Kd (human serum albumin [22]): 74.7 nM | koff (human serum albumin [22]): 0.000325 s⁻¹ | kon (human serum albumin [22]): 4350 M⁻¹ s⁻¹ | Kd (human PCSK9 [23]): 0.515 nM | koff (human PCSK9 [23]): 0.000168 s⁻¹ | kon (human PCSK9 [23]): 336000 M⁻¹ s⁻¹
